Reference: paper PMC4156547

Tests used:
[1] = target: HIV-1 gp41^27–194 (HIV-1 (HXB2)); assay: AUC
[2] = target: gp41^27–154 (HIV ectodomain) (HIV-1); assay: AUC

Substance: HIV-1 gp41^27–194 (domain or fragment)
- stoichiometry N [1]: 3

Substance: gp41^27–154 (HIV ectodomain) (domain or fragment)
- stoichiometry N [2]: 3
